Test system: modulator of non-genomic activity of nuclear receptors (MNAR)

Substance: cSrc
- cSrc enzymatic activity (acid denatured enolase as a substrate, [32P]-γATP, SDS-PAGE autoradiography): MNAR itself strongly stimulates cSrc enzymatic activity

From patent publication US20050142634
